Source: patent publication US20260077004A1 (UNIVERSITY OF MASSACHUSETTS, published 2026)

B1: full-length G628S KCNH2 (other)
chain: MPVRRGHVAPQNTFLDTIIRKFEGQSRKFIIANARVENCAVIYCNDGFCELCGYSRAEVMQRPCTCDFLHGPRTQRRAAAQIAQALLGAEERKVEIAFYRKDGSCFLCLVDVVPVKNEDGAVIMFILNFEVVMEKDMVGSPAHDTNHRGPPTSWLAPGRAKTFRLKLPALLALTARESSVRSGGAGGAGAPGAVVVDVDLTPAAPSSESLALDEVTAMDNHVAGLGPAEERRALVGPGSPPRSAPGQLPSPRAHSLNPDASGSSCSLARTRSRESCASVRRASSADDIEAMRAGVLPPPPRHASTGAMHPLRSGLLNSTSDSDLVRYRTISKIPQITLNFVDLKGDPFLASPTSDREIIAPKIKERTHNVTEKVTQVLSLGADVLPEYKLQAPRIHRWTILHYSPFKAVWDWLILLLVIYTAVFTPYSAAFLLKETEEGPPATECGYACQPLAVVDLIVDIMFIVDILINFRTTYVNANEEVVSHPGRIAVHYFKGWFLIDMVAAIPFDLLIFGSGSEELIGLLKTARLLRLVRVARKLDRYSEYGAAVLFLLMCTFALIAHWLACIWYAIGNMEQPHMDSRIGWLHNLGDQIGKPYNSSGLGGPSIKDKYVTALYFTFSSLTSVGFSNVSPNTNSEKIFSICVMLIGSLMYASIFGNVSAIIQRLYSGTARYHTQMLRVREFIRFHQIPNPLRQRLEEYFQHAWSYTNGIDMNAVLKGFPECLQADICLHLNRSLLQHCKPFRGATKGCLRALAMKFKTTHAPPGDTLVHAGDLLTALYFISRGSIEILRGDVVVAILGKNDIFGEPLNLYARPGKSNGDVRALTYCDLHKIHRDDLLEVLDMYPEFSDHFWSSLEITFNLRDTNMIPGSPGSTELEGGFSRQRKRKLSFRRRTDKDTEQPGEVSALGPGRAGAGPSSRGRPGGPWGESPSSGPSSPESSEDEGPGRSSSPLRLVPFSSPRPPGEPPGGEPLMEDCEKSSDTCNPLSGAFSGVSNIFSFWGDSRGRQYQELPRCPAPTPSLLNIPLSSPGRRPRGDVESRLDALQRQLNRLETRLSADMATVLQLLQRQMTLVPPAYSAVTTPGPGPTSTSPLLPVSPLPTLTLDSLSQVSQFMACEELPPGAPELPQEGPTRRLSLPGQLGALTSQPLHRHGSDPGS
B2: truncated G628S KCNH2 (other)
chain: MPVRRGHVAPQNTFLDTIIRKFEGQSRKFIIANARVENCAVIYCNDGFCELCGYSRAEVMQRPCTCDFLHGPRTQRRAAAQIAQALLGAEERKVEIAFYRKDGSCFLCLVDVVPVKNEDGAVIMFILNFEVVMEKDMVGSPAHDTNHRGPPTSWLAPGRAKTFRLKLPALLALTARESSVRSGGAGGAGAPGAVVVDVDLTPAAPSSESLALDEVTAMDNHVAGLGPAEERRALVGPGSPPRSAPGQLPSPRAHSLNPDASGSSCSLARTRSRESCASVRRASSADDIEAMRAGVLPPPPRHASTGAMHPLRSGLLNSTSDSDLVRYRTISKIPQITLNFVDLKGDPFLASPTSDREIIAPKIKERTHNVTEKVTQVLSLGADVLPEYKLQAPRIHRWTILHYSPFKAVWDWLILLLVIYTAVFTPYSAAFLLKETEEGPPATECGYACQPLAVVDLIVDIMFIVDILINFRTTYVNANEEVVSHPGRIAVHYFKGWFLIDMVAAIPFDLLIFGSGSEELIGLLKTARLLRLVRVARKLDRYSEYGAAVLFLLMCTFALIAHWLACIWYAIGNMEQPHMDSRIGWLHNLGDQIGKPYNSSGLGGPSIKDKYVTALYFTFSSLTSVGFSNVSPNTNSEKIFSICVMLIGSLMYASIFGNVSAIIQRLYSGTARYHTQMLRVREFIRFHQIPNPLRQRLEEYFQHAWSYTNGIDMNAVLKGFPECLQADICLHLNRSLLQHCKPFRGATKGCLRALAMKFKTTHAPPGDTLVHAGDLLTALYFISRGSIEILRGDVVVAILGKNDIFGEPLNLYARPGKSNGDVRALTYCDLHKIHRDDLLEVLDMYPEFSDHFWSSLEITFNLRDTNMIPGSPGSTELEGGFSRQRKRKLSFRRRTDKDTEQPGEVSALGPGRAGAGPSSRG

Molecular target: wild-type KCNH2 (human, UniProt Q12809 1-1159)
Test: cell-based or functional assay

Binder	reduction in sustained current (IKr) relative to GFP control cells, CHO cells	reduction in tail current (IKr) relative to GFP control cells, CHO cells
B1	65%	58%
B2	70%	78%
